From article PMC4267786

Target: native apolipoprotein D (apoD) from human plasma (human) (UniProt P05090)
Experiment: ELISA; detergent-free dual-specific ELISA with purified components; capture anti-apoD D544, detection anti-apoB LDL20-biotin; LDL 333 ng/ml (or VLDL 1000 ng/ml, also with detergent) alone or with apoD 100 ng/ml, recombinant apoD 100 ng/ml, HDL2 or HDL3 1000 ng/ml; read as absorbance relative to LDL alone

UniProt P05090, sequence (P05090 21-189): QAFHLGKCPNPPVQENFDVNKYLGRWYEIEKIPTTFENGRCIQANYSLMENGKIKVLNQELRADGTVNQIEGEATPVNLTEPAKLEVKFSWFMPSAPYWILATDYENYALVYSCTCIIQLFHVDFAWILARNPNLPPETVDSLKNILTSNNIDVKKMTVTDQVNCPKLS

purified low density lipoprotein (LDL) (complex)
fold enhancement of LDL binding against LDL alone: 6 fold
